The experiment concerns the target T1, human GPC3 (human, UniProt P51654 25-563).
T1 construct: range 25-563; soluble analyte; also called soluble human GPC3; glypican 3
In words: SPR.

Numbering of substitutions follows the chain as printed.

T1 sequence (P51654 25-563 limits assumed): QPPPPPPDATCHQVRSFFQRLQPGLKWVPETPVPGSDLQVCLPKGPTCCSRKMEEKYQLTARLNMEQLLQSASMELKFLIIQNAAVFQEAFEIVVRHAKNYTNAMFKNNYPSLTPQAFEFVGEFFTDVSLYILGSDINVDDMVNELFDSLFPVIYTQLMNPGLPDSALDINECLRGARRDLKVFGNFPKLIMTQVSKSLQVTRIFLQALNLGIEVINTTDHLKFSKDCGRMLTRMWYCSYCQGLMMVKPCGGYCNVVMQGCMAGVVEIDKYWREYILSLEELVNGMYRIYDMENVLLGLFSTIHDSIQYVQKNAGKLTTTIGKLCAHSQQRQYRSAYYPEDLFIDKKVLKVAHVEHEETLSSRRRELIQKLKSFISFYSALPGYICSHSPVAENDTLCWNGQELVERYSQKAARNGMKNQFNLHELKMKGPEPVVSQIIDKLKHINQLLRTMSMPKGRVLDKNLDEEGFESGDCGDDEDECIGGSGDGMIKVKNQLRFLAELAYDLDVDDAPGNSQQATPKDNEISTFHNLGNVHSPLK

B1: H0610-G1dh/none-Hi-Kn010G3/L0248-k0 (antibody, V domains shown)
VH: QVQLVQSGAEVKKPGASVKVSCKASGYTFTDYEMHWIRQPPGQGLEWIGAIDGKTPDTAYSQKFKGRVTLTADKSTSTAYMELSSLTSEDTAVYYCTRFYSYTYWGQGTLVTVSS
VL: DIVMTQSPLSLPVTPGEPASISCRPSQSPVHSNRNTYIQWYQQKPGQAPRLLIYKVSNRFSGVPDRFSGSGSGTDFTLKISRVEAEDVGVYYCYQGTQVPYTFGQGTKLEIK
notes: one-arm
In the case of B1, the affinity, expressed as Kd, was 0.0555 nM.

B2: GCH025-G1dh/none-Hi-Kn010G3/L0000-k0 (antibody, V domains shown)
VH: B1 VH with K19T, Q43E, K54E
VL: DIVMTQSPLSLPVTPGEPASISCRSSQSLVHSNRNTYLHWYQQKPGQAPRLLIYKVSNRFSGVPDRFSGSGSGTDFTLKISRVEAEDVGVYYCGQGTQVPYTFGQGTKLEIKR
notes: one-arm
Regarding B2, the Kd (usually the constant that tells how readily two partners part at equilibrium) was determined as 5.05 nM.

B3: GCH023-G1dh/none-Hi-Kn010G3/L0000-k0 (antibody, V domains shown)
VH: B1 VH with Q43E, K54E
VL: B2 VL
notes: one-arm
Consider B3, for which binding was characterised by a dissociation constant (Kd) of 4.94 nM.

B4: GCH010-G1dh/none-Hi-Kn010G3/L0000-k0 (antibody, V domains shown)
VH: B1 VH with K54D, S61E
VL: B2 VL
notes: one-arm
B4 displayed a Kd of 4.12 nM.

B5: H0610-G1dh/none-Hi-Kn010G3/L0258-k0 (antibody, V domains shown)
VH: B1 VH
VL: B1 VL with P25S, S28P, I38L, Q39H, Y94T
notes: one-arm
Molecule B5 gave a Kd of 0.000352 nM.

B6: GCH016-G1dh/none-Hi-Kn010G3/L0000-k0 (antibody, V domains shown)
VH: B1 VH with S61E, K65Q, G66D
VL: B2 VL
notes: one-arm
With B6, binding was put at a Kd of 4.59 nM.

B7: H0610-G1dh/none-Hi-Kn010G3/L0268-k0 (antibody, V domains shown)
VH: B1 VH
VL: B1 VL with P25S, Y94V
notes: one-arm
B7: binding was put at a Kd of 0.0169 nM.

B8: GCH005-G1dh/none-Hi-Kn010G3/L0000-k0 (antibody, V domains shown)
VH: B1 VH with Y60E
VL: B2 VL
notes: one-arm
The molecule B8 returned a Kd of 5.32 nM.

B9: H0610-G1dh/none-Hi-Kn010G3/TR01L009-k0 (antibody, V domains shown)
VH: B1 VH
VL: B1 VL with P25S, P29L, I38L, Q39H, Q42L, A48S, R50Q, S61R, Y94G
notes: one-arm
B9: the dissociation constant (Kd) amounted to 3.81 nM.

B10: GCH015-G1dh/none-Hi-Kn010G3/L0000-k0 (antibody, V domains shown)
VH: B1 VH with S61E, Q62E, K63S
VL: B2 VL
notes: one-arm
On to B10, for which the Kd stood at 4.14 nM.

B11: H0610-G1dh/none-Hi-Kn010G3/TR01L019-k0 (antibody, V domains shown)
VH: B1 VH
VL: B1 VL with R24Q, P25A, Q27E, I38L, Q39H, Q42L, A48S, R50Q
notes: one-arm
As for B11, the Kd came to 1.15 nM.

B12: H0610-G1dh/none-Hi-Kn010G3/TR01L016-k0 (antibody, V domains shown)
VH: B1 VH
VL: B1 VL with P25S, I38L, Q39H, Q42L, A48S, R50Q
notes: one-arm
Take B12: the Kd is 1.08 nM.

B13: H0610-G1dh/none-Hi-Kn010G3/L0262-k0 (antibody, V domains shown)
VH: B1 VH
VL: B1 VL with P25S, S28P, I38L, Q39H, Y94A
notes: one-arm
Molecule B13 came in with a Kd of 0.211 nM.

B14: GCH022-G1dh/none-Hi-Kn010G3/L0000-k0 (antibody, V domains shown)
VH: B1 VH with K19T, K54E
VL: B2 VL
notes: one-arm
The molecule B14 showed a Kd of 4.92 nM.

B15: H0610-G1dh/none-Hi-Kn010G3/TR01L011-k0 (antibody, V domains shown)
VH: B1 VH
VL: B1 VL with R24Q, P25A, Q27E, P29L, I38L, Q39H, S61R, Y94G, L109V, K112E
notes: one-arm
Take B15: the Kd worked out at 4.02 nM.

B16: GCH006-G1dh/none-Hi-Kn010G3/L0000-k0 (antibody, V domains shown)
VH: B1 VH with S61E
VL: B2 VL
notes: one-arm
B16 gave a dissociation constant (Kd) of 4.06 nM.

B17: H0610-G1dh/none-Hi-Kn010G3/L0269-k0 (antibody, V domains shown)
VH: B1 VH
VL: B1 VL with P25S, Y94G
notes: one-arm
B17 had a Kd of 0.459 nM.

B18: GCH014-G1dh/none-Hi-Kn010G3/L0000-k0 (antibody, V domains shown)
VH: B1 VH with Q43E, S61E
VL: B2 VL
notes: one-arm
In the case of B18, the Kd came out at 4.2 nM.

B19: H0610-G1dh/none-Hi-Kn010G3/TR01L020-k0 (antibody, V domains shown)
VH: B1 VH
VL: B1 VL with R24Q, P25A, Q27E, Q42L, A48S, R50Q
notes: one-arm
Take B19: the Kd came out at 0.0224 nM.

B20: H0610-G1dh/none-Hi-Kn010G3/L0259-k0 (antibody, V domains shown)
VH: B1 VH
VL: B1 VL with P25S, Q39H, Y94T
notes: one-arm
For B20, the Kd was 0.334 nM.

B21: H0610-G1dh/none-Hi-Kn010G3/TR01L018-k0 (antibody, V domains shown)
VH: B1 VH
VL: B1 VL with R24Q, P25A, Q27E, I38L, Q39H, Q42L, A48S, R50Q, Y94G
notes: one-arm
B21 came in with a Kd of 2.17 nM.

B22: H0610-G1dh/none-Hi-Kn010G3/L0264-k0 (antibody, V domains shown)
VH: B1 VH
VL: B1 VL with I38L, Q39H, Y94A
notes: one-arm
B22 had a Kd of 0.219 nM.

B23: GCH008-G1dh/none-Hi-Kn010G3/L0000-k0 (antibody, V domains shown)
VH: B1 VH with K54E
VL: B2 VL
notes: one-arm
The molecule B23 came in with a Kd of 5.55 nM.

B24: H0610-G1dh/none-Hi-Kn010G3/TR01L017-k0 (antibody, V domains shown)
VH: B1 VH
VL: B1 VL with P25S, Q42L, A48S, R50Q
notes: one-arm
In turn, B24 had a Kd of 0.00827 nM.

B25: H0610-G1dh/none-Hi-Kn010G3/L0265-k0 (antibody, V domains shown)
VH: B1 VH
VL: B1 VL with P25S, Y94A
notes: one-arm
In turn, B25 gave a Kd of 0.0087 nM.

B26: GCH013-G1dh/none-Hi-Kn010G3/L0000-k0 (antibody, V domains shown)
VH: B1 VH with K19T, S61E
VL: B2 VL
notes: one-arm
B26 yielded a Kd of 4.44 nM.

B27: H0610-G1dh/none-Hi-Kn010G3/TR01L015-k0 (antibody, V domains shown)
VH: B1 VH
VL: B1 VL with P25S, I38L, Q39H, Q42L, A48S, R50Q, Y94G
notes: one-arm
B27 returned a Kd of 2.16 nM.

B28: GCH027-G1dh/none-Hi-Kn010G3/L0000-k0 (antibody, V domains shown)
VH: B1 VH with T28E
VL: B2 VL
notes: one-arm
In the case of B28, the affinity, expressed as Kd, was 3.83 nM.

B29: H0610-G1dh/none-Hi-Kn010G3/TR01L003-k0 (antibody, V domains shown)
VH: B1 VH
VL: B1 VL with P25S, P29L, I38L, Q39H, Y94G, L109V, K112E
notes: one-arm
B29 registered a Kd of 5.08 nM.

B30: GCH026-G1dh/none-Hi-Kn010G3/L0000-k0 (antibody, V domains shown)
VH: B1 VH with K54E, Q62E, K63S
VL: B2 VL
notes: one-arm
B30 yielded a Kd of 5.17 nM.

B31: H0610-G1dh/none-Hi-Kn010G3/L0266-k0 (antibody, V domains shown)
VH: B1 VH
VL: B1 VL with P25S, S28P, I38L, Q39H, Y94V
notes: one-arm
For B31, the Kd turned out to be 0.213 nM.

B32: H0610-G1dh/none-Hi-Kn010G3/TR01L005-k0 (antibody, V domains shown)
VH: B1 VH
VL: B1 VL with P25S, P29L, I38L, Q39H, Q42L, A48S, R50Q, Y94G, L109V, K112E
notes: one-arm
Molecule B32 yielded a Kd of 5.37 nM.

B33: GCH012-G1dh/none-Hi-Kn010G3/L0000-k0 (antibody, V domains shown)
VH: B1 VH with Y60E, S61E
VL: B2 VL
notes: one-arm
B33: binding was put at a Kd of 5.4 nM.

B34: H0610-G1dh/none-Hi-Kn010G3/TR01L008-k0 (antibody, V domains shown)
VH: B1 VH
VL: B1 VL with R24Q, P25A, Q27E, P29L, I38L, Q39H, S61R, Y94G
notes: one-arm
In the case of B34, the affinity, expressed as Kd, was 3.48 nM.

B35: H0610-G1dh/none-Hi-Kn010G3/TR01L012-k0 (antibody, V domains shown)
VH: B1 VH
VL: DIVMTQSPLSLPVTPGEPASISCRSSQSLVHSNRNTYLHWYLQKPGQSPQLLIYKVSNRFRGVPDRFSGSGSGTDFTLKISRVEAEDVGVYYCGQGTQVPYTFGQGTKVEIE
notes: one-arm
For B35, the Kd came out at 4.25 nM.

B36: H0610-G1dh/none-Hi-Kn010G3/L0267-k0 (antibody, V domains shown)
VH: B1 VH
VL: B1 VL with I38L, Q39H, Y94V
notes: one-arm
In turn, B36 displayed a Kd of 0.179 nM.

B37: H0610-G1dh/none-Hi-Kn010G3/TR01L010-k0 (antibody, V domains shown)
VH: B1 VH
VL: B35 VL with L42Q, S48A, Q50R
notes: one-arm
B37 showed a Kd of 2.92 nM.

B38: GCH029-G1dh/none-Hi-Kn010G3/L0000-k0 (antibody, V domains shown)
VH: B1 VH with T30E
VL: B2 VL
notes: one-arm
As for B38, the equilibrium dissociation constant (Kd) came out at 5.01 nM.

B39: H0610-G1dh/none-Hi-Kn010G3/L0263-k0 (antibody, V domains shown)
VH: B1 VH
VL: B1 VL with P25S, Q39H, Y94A
notes: one-arm
As to B39, the affinity, expressed as Kd, was 0.564 nM.

B40: H0610-G1dh/none-Hi-Kn010G3/L0261-k0 (antibody, V domains shown)
VH: B1 VH
VL: B1 VL with P25S, Y94T
notes: one-arm
In turn, B40 yielded a dissociation constant Kd of 0.0107 nM.

B41: GCH025-G1dh/none-Hi-Kn010G3/L0204-k0 (antibody, V domains shown)
VH: B1 VH with K19T, Q43E, K54E
VL: B2 VL with L29P, S61R
notes: one-arm
As to B41, the dissociation constant Kd was 0.67 nM.

B42: GCH003-G1dh/none-Hi-Kn010G3/L0000-k0 (antibody, V domains shown)
VH: B1 VH with K54D
VL: B2 VL
notes: one-arm
As to B42, the Kd is 5.2 nM.

B43: H0610-G1dh/none-Hi-Kn010G3/L0249-k0 (antibody, V domains shown)
VH: B1 VH
VL: B1 VL with Y94S
notes: one-arm
For B43, the dissociation constant (Kd) was 0.00686 nM.

B44: GCH007-G1dh/none-Hi-Kn010G3/L0000-k0 (antibody, V domains shown)
VH: B1 VH with Q62D
VL: B2 VL
notes: one-arm
Turning to B44, the Kd came to 4.93 nM.

B45: GCH019-G1dh/none-Hi-Kn010G3/L0000-k0 (antibody, V domains shown)
VH: B1 VH with K19T, Q43E, S61E
VL: B2 VL
notes: one-arm
Molecule B45 registered a Kd of 4.36 nM.
